# Results reported in article PMC5560758, “SCF^AtPP2-B11 modulates ABA signaling by facilitating SnRK2.3 degradation in Arabidopsis thaliana” (PLoS Genetics, 2017).
# T1: MBP-SnRK2.3 (Arabidopsis thaliana, UniProt Q39193 1-361)
# T1 construct: SnRK2.3 (SnRK2I) of Arabidopsis thaliana; ORF cloned into pMAL-c2x; pMAL-c2x places MBP at the N-terminus (surmised from the vector); also called SnRK2.3-MBP; source: E. coli BL21, purified (Amylose Resin)
# T1 sequence (looked up): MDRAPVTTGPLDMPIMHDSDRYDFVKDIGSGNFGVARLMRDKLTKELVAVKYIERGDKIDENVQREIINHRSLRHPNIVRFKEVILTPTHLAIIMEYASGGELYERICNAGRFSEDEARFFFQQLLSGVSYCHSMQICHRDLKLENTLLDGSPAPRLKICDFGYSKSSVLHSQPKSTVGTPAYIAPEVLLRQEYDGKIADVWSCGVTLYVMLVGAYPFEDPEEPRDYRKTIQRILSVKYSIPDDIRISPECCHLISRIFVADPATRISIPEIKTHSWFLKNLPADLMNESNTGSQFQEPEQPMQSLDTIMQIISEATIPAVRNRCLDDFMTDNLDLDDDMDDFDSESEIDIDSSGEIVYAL
# Target: T1, MBP-SnRK2.3
# Experiment: pull-down; AtPP2-B11-GST held on GST beads, incubated with MBP-SnRK2s 2 h at room temperature or 4°C overnight; washed four times; anti-MBP blot
# Conditions: both partners purified
binder,measurement,value
"GST-AtPP2-B11 (natural protein, Arabidopsis thaliana, UniProt Q949S5 1-257, looked up, AtPP2-B11, F-box protein of Arabidopsis thaliana, 257 amino acids; ORF cloned into pGEX-4T-1; pGEX-4T-1 places GST at the N-terminus (surmised from the vector); also called AtPP2-B11-GST; source: E. coli BL21, purified (Glutathione Agarose)) MNNLPEDCIAKILSLTTPLDVCRLSAVSSIFRSAAGSDDVWNHFLPADFPAGFAAPAGLPTRKQLFFSLVDNPLLINGTLLSFSLERKSGNKCYMMAARALNIVWGHEQRYWHWISLPNTRFGEVAELIMVWWLEITGKINITLLSDDTLYAAYFVFKWNHSPYGFRQPVETSLVLADTESTDNVVQPSMISLMQDSGGEEGQSPVLRRDGWYEVELGQFFKRRGDLGEIEMSLKETKGPYEKKGLIVYGIEIRPVP",binding result,binds
